Assay: soluble on expression in E. coli; label from the status in PepcDB or PDB records

Row | Sequence | soluble on expression in E. coli
1 | MSLVEMVNRPYASAFEAFAVKNPDVLCLSADLTSSCEIDGFRDRHPDQFLSLGMAEQNMMSFAGGLGLAGYRPFLHSFGVFLYRRPYDQLMASVAYPRRKVRLMGFLPGITTPGGMTHQAIEDVAVMRSIPNMSILETGDATEVESICEAADSIDGPVYCRVLRGSIPRLFDTPIRVGEMRELALGADVLVVTSGIATEEALRARDALSNAGVSIRHLHIHTIKPFNEQALLDHIGSVSKGVVVLENHVITGGVGSLVAEIMADNGVGKPLVRLGLNDTYAHGGSRGYLMKHYGLDAGALVRGIERIIGASTGIDEEALASARVDAVHSAVKAEAEGHHHHHH | not soluble
2 | MSLNPNYSIFAELYDELFDPNMYLSWNGFVQDNSRNNRILDLAGGSGKLAVLLTKSGYQVSILDLSSQMLSLAKQRAENNNFSFDLFQANMAQNWHLNKRFPLISCFADSLNYLSNIGETKRTFFEVFNHLEKNGKFLFDVITPYQVNVVYRNYMYNNDDDPEKIFMWTSFPGDIKNSVDHDLKFFVYQEGIDAFKMVREVHHEQTYPPEKYLSLLKEIGFRNIHLTSDFGRGKITRDTTRAFFVAEKEGHHHHHH | not soluble
3 | MDVKHNPKKEVIERSLNATEKAIESIREGDLVRRHTVLELRDMQISMSEDFDQIRGMMHELDHQIDKERAENSKWMNRKMEKAKATADQALASTLMVKDVQLLEKKVNILKDSVIQVNKAFYKYEKDVDMKDLMDQVTDMVHRTEKKEQDALEPHATDEQAIEKAFRGAIEGLYGLKSSNPKVMEEAKLLAGEMRVFRDAAANKNFHSMISKVAPGKSGVSLDSSSSESSFSTSASSSLAKPNGKSSSSAASSISGSH | not soluble
4 | MAFEGLADRLQQTMQKIRGKGKVSEADVKEMMREVRLALLEADVNFKVVKDFVKRVSERAVGQDVMKSLTPGQQVIKVVQEELTELMGGEQSKIAIANKPPTVIMMVGLQGAGKTTTTGKLANLLRKKHNRKPMLVAADIYRPAAIKQLETLGKQLDMPVFSLGDQVSPVEIAKQAIAKAKEDHHDYVLIDTAGHLHIDEELMDELAKVKEVAKPDEIFLVVDAMTGQDAVNVAQSFHEQLGLTGVVLTKLDGDTRGGAALSIKAVTNTPIKFAGMGEKLDALEAFHPERMASRILGMGDVLTLIEKAQATVDEEKAKELEQKMRTLSFTLDDFLEQLGQVRQLGPLDELLGMLPGANKIKGLKNAQVDEKQIGHIEAIIRSMTKLEREQPEIINASRKKRIAKGSGTTVQEINRLIKQFDDMKKMMKTMTGMQKGKKKGLGGLKFPFM | not soluble
5 | MDPLVSFFDGMAQASWLRPVHDRLKKGTGSWANRAVLDVGCGTGRLLARGVHEAAHLAGVDLSKQMVLATEERLHEHKQCGRLTVVQGDAYDLPFADESFDVCLSTCVMFLLPEPERGMKEMIRVLNGAGVIGMLNPTNKMNHAAAKAYCKKSGITGFEEKTLLQWSNVSTRRHRYTAEQLTHFFKQHGAWVVTHELVLDGLAVVTVASWNKLEHHHHHH | not soluble
6 | KILLEPTKVSFWGILRTPFMEQFGNGITPFSVGGQPMQILGLRQAGVSLGEGSSVSLMK | not soluble
7 | MGSDKIHHHHHHMATVAFHTLGCKVNHYETEAIWQLFKEAGYERRDFEQTADVYVINTCTVTNTGDKKSRQVIRRAIRQNPDGVICVTGCYAQTSPAEIMAIPGVDIVVGTQDREKMLGYIDQYREERQPINGVSNIMKARVYEELDVPAFTDRTRASLKIQEGCNNFCTFCIIPWARGLLRSRDPEEVIKQAQQLVDAGYKEIVLTGIHTGGYGEDMKDYNFAKLLSELDTRVEGVKRIRISSIEASQITDEVIEVLDRSDKIVNHLHIPIQSGSNTVLKRMRRKYTMEFFADRLNKLKKALPGLAVTSDVIVGFPGETEEEFMETYNFIKEHKFSELHVFPYSKRTGTPAARMEDQVDENVKNERVHRLIALSDQLAKEYASQYENEVLEIIPEEAFKETEEENMFVGYTDNYMKVVFKGTEDMIGKIVKVKILKAGYPYNEGQFVRVVEDEITEHMRLSS | not soluble
8 | MKVLFAKTFVKDLKHVPGHIRKRIKLIIEECQNSNSLNDLKLDIKKIKGYHNYYRIRVGNYSIGIEVNGDTIIFRRVLHRKSIYDYFP | soluble
9 | LAVLMVLAVNFGTVTTFAAMSDEAESISVNKPVTDNLSSVNDVKYYEVELPAPGKVNLSFSHANLERTYVYWKVTMFDSVENEVLYFESTGTNTDGKSMSVYLDKGTYYVRVKSEGYWYSTTDYTLCVNYTENKGEYEIEPNYSKELATEISVNKPVIGNHRVKGDTDFYKFTISEPGKVDLSFNHANLERTYVYWKVTMFDSVENIVLYFESTGTNTTGKSMNAYLSEGTYYIRVTTDDYWHSTADYTLCVNYTENQGEYEIEPNNSQDNATLIEVDEPVTGNLRTSSDVDYYRFVMPDSGKVYLGFNHPNLERTYVYWKVSLYDANGNRLYQLNSRGTDTVGKSDEIKIGSGTYYVKVEYEGYWHSSADYSLTVNTVGGIPKVKVFLNGKRIRFDQPPIIQNGRTLVPLRAIFEAMNATVSWDDKTKTVTAKKGDTTIVMTIGNKTMKKNGVAIELDVPPQIVNGRTLVPARAVAESFGAKVDWDGSTRTVTITEGN | not soluble
10 | GMSPTVLPATQADFPKIVDVLVEAFANDPTFLRWIPQPDPGSAKLRALFELQIEKQYAVAGNIDVARDSEGEIVGVALWDRPDGNHSAKDQAAMLPRLVSIFGIKAAQVAWTDLSSARFHPKFPHWYLYTVATSSSARGTGVGSALLNHGIARAGDEAIYLEATSTRAAQLYNRLGFVPLGYIPSDDDGTPELAMWKPPAMPTV | soluble
11 | MVSYQILLLLVSILPLTYSIRTSKWHFSGKLLCPLYTFKYHLEVFEEDYFRKTDDLLTNQTEVSSISPHLYKVDAEETDDGLDFGRHFEIYMLIIHDCNPDRYVKSLKVDWGKYHIDIEFVTFYALKFEIFSEVSEVKDIDVFGKGSAL | not soluble
12 | MAGDPMNVEGMATGGIHMELHCPQCQHVLDQDNGHARCRSCGEFIEMKALCPDCHQPLQVLKACGAVDYFCQHGHGLISKKRVEFVLALEHHHHHH | not soluble
13 | MSLDLMTKLKIYNGEEIVEKASIKKIEREELEEECRQKEGMTGVSTRFIIKAINNAICESNCSCINPIDVINSLITAVKEKDLCEEVEDKYISFLEDVVRKEYNKILYKEITKFFIESFNSQGEALFNNYLDHAEAYVNKVYLKDNITGENLDPDEEFMREIEEEIGVTENSSKGFRKDVVAYILYLIRKGEEINCNCYKPLKEAIERKLISSSREISRIINPSKIRNKAQDEKYKFIVEKLKNNGYCDTCAFYTLRYAANNFWRDEGHHHHHH | not soluble
14 | MSLAETFWVDVQRAEGRPLNLELIAPLSVGSKSVEEVENVAIRVELTNGCVGWGEVPVFPSVTAVNHTVALAKAMEACEFLSCSSPMVLSLVLSEIGGILPGPELASVRAGVEMALIDAVANSIDVPLWRLFGGVANTLTTGVTLPTVFPAEAYSQGASKYCQSGFRTFKLKIGKNTSAEIKALQAIQAAHPLCSLILDANEAYTCQEAIEILQKLYDSGITPAVLEQPVHRSDWKGLGEVSNFAREKKYGISVAVDETCQSLIEVRRVIKENLADAINIKLAKFGVMGALEIIELARESGVKLMISGTVESRLATGFAAHLAAGLGCFKSVVLDMPFLLSEDPVICGYEASGPVYKFLNVRGQGGFLKWDFSSWEGHHHHHH | soluble
15 | MPIPAPSPDARAVVTGASQNIGAALATELAARGHHLIVTARREDVLTELAARLADKYRVTVDVRPADLADPQERSKLADELAARPISILCANAGTATFGPIASLDLAGEKTQVQLNAVAVHDLTLAVLPGMIERKAGGILISGSAAGNSPIPYNATYAATKAFVNTFSESLRGELRGSGVHVTVLAPGPVRTELPDASEASLVEKLVPDFLWISTEHTARVSLNALERNKMRVVPGLTSKAMSVASQYAPRAIVAPIVGAFYKRLGGS | not soluble
16 | MMVRILTRLGQVREAEEKYRRELVDFRMGEVYGNLRAIIADEDVEVRAGEAKPVKIKEVSIPANHIVFMCAYATNPLGHPIAAGEETPLPISMDRKADHATFVAAADGKISRNDLLGVLIILPVELTH | not soluble
17 | MDERRFFRDVCAEWMEQYRLTVRESTLEKTQRIINIHVLPAFGDMVINNITPNVCQKVVNKWFLEAKSYKKWLNYASMIFDYALRAEYVGRNPCTLVTMPRVQEQAGEKLEHHHHHH | not soluble
18 | MPVVNIPIKILGQNQSHSRSNSSSSVDNDRNQPPQQPPQPQPQQQSQQQYQQAPNVNTNMHHSNGFSPNFPSRSPIPDFPSFSSGFPNDSEWSSNFPSFPNFPSGFSNGSSNFPDFPRFGRDGGLSPNPPMQGYRRSPTPTSTQSPTSTLRRNSQQNQAPPQYSQQQPQQAQQRQTTPPSTKASSRPPSRTREPKEPEVPERPAVIPLPYEKKEKPLEKKGSRDSGKGDENLEENIAKITIGKNNCELCPEQETDGDPSPLTSPITEGKPKRGKKLQRNQSVVDFNAKTIVTLDKIELQVEQLRKKAAELEMEKEQILRSLGEISVHNCMFKLEECDREEIEAITDRLTKRTKTVQVVVETPRNEEQKKALEDATLMIDEVGEMMHSNIEKAKLCLQTYMNACSYEETAGATCQNFLKIIIQCAADDQKRIKRRLENLMSQIENAERTKADLMDDQSE | not soluble
19 | MGEELNRLLDVLGNETRRRILFLLTKRPYFVSELSRELGVGQKAVLEHLRILEEAGLIESRVEKIPRGRPRKYYMIKKGLRLEILLTPTLFGSEMYEAKGVRKSPEYEQAKELIKSQEPINVKMRELAEFLHELNERIREIIEEKRELEEARILIETYIENTMRRLAEENRQIIEEIFRDIEKILPPGYARSLKEKFLNINI | soluble
20 | MPGLCTGPFAKGRCMSLLAQLDQKIAANGGLIVSCQPVPDSPLDKPEIVAAMALAAEQAGAVAIRIEGVANLQATRAVVSVPIIGIVKRDLEDSPVRITAYIEDVDALAQAGADIIAIDGTDRPRPVPVETLLARIHHHGLLAMTDCSTPEDGLACQKLGAEIIGTTLSGYTTPETPEEPDLALVKTLSDAGCRVIAEGRYNTPAQAADAMRHGAWAVTVGSAITRLEHICQWYNTAMKKAVL | soluble
21 | MPCDFPGCGRIFSNRQYLNHHKKYQHIHQKSFSCPEPACGKSFNFKKHLKEHMKLHSDTRDYICEF | soluble
22 | MNDAVEVELEPVTYHYFNAGAAGKDLNTNETYIGKMLEEKTGVNFKVEHLVGDINQRTGVMIASGDYPDVIVPDAAIDALLDAGAFIPLNDLLEEHGPNLLEAYGDYLHMFTHDDGNIYYIPFGATVNEFQPNPNIDQGAFWIQRGILKEYGFPEINTLDEYLDIITRYAKENPEIDGMRTIPFTGLTYDWRFFAFTNVPNHLAGYPNDGGVMVDMDTHEASVYADSEYAKRWLKALNELNAEGLLDQEMFVMNYDEYLEKLSSGRVLGFFDYGWQFGTASNALRDAGNPDREYMALPVVFDEGIKDQYIDPPAFTGNRGVGITVNAENPERIIQFWDELIKEDNQRLVMWGIEGEHYNVDENGRFYQTEEQIEIVNNQNFRDEFGMTTFEWSWPRINGTFSDGNAVEARRQPEVAFASYNDDDKEYLEAYGISTFAELFSEPDERPWYPAWSANIEQGSPQQIFEERADEILRRHYARIVLADPADFDKEWDDFVQAYRSLDVDAYENFFTEVVQARVRGEWLEHHHHHH | soluble
23 | MSEKQINNFSLISRLFGNLFYRFPTDKVLADAFVWLQQEGLSQVWALDTDKESELALNSLQVKIDLNLLNEEYQKLFATNGKVMTAISAYGIDVEEFVNFRLVRNMPEVESADHFALLLLTASWLEDNSDSLVAQQEFFETFLLPCAAKFLTQVENQATLPFYRALALLTREILATMADELEEE | soluble
24 | MIDLYFAPTPNGHKITLFLEEAELDYRLIKVDLGKGGQFRPEFLRISPNNKIPAIVDHSPADGGEPLSLFESGAILLYLAEKTGLFLSHETRERAATLQWLFWQVGGLGPMLGQNHHFNHAAPQTIPYAIERYQVETQRLYHVLNKRLENSPWLGGENYSIADIACWPWVNAWTRQRIDLAMYPAVKNWHERIRSRPATGQALLKAQLGDERSDS | soluble
